Laboratory results as given in patent publication US20160068860A1, “TRANSGENIC PLANTS” (CONSEJO SUPERIOR DE INVESTIGACIONES CIENTIFICAS (CSIC), priority 2013, published 2016).

B1: PYL4A194T: AtPYL4 ABA receptor mutant polypeptide with A194T substitution (SEQ ID NO. 60; nucleic acid SEQ ID NO: 55); also over-expressed in plants (protein, listed as Arabidopsis thaliana)
chain: MLAVHRPSSAVSDGDSVQIPMMIASFQKRFPSLSRDSTAARFHTHEVGPNQCCSAVIQEISAPISTVWSVVRRFDNPQAYKHFLKSCSVIGGDGDNVGSLRQVHVVSGLPAASSTERLDILDDERHVISFSVVGGDHRLSNYRSVTTLHPSPISGTVVVESYVVDVPPGNTKEETCDFVDVIVRCNLQSLAKITENTAAESKKKMSL

How the values were obtained:
PP2CA [1] = assay: BiFC assay with PP2CA in N. benthamiana leaves; type: cell-based; conditions: no exogenous ABA
Experimental: (§1) Experiments were performed basically as described by Voinnet et al., (2003). The different binary vectors described above where introduced into Agrobacterium tumefaciens C58C1 (pGV2260) (Deblaere et al., 1985) by electroporation and transformed cells were selected in LB plates supplemented with kanamycin (50 μg/ml). Then, they were grown in liquid LB medium to late exponential phase and cells were harvested by centrifugation and resuspended in 10 mM morpholinoethanesulphonic (MES) acid-KOH pH 5.6 containing 10 mM MgCl2 and […] acetosyringone to an OD600 nm of 1. These cells were mixed with an equal volume of Agrobacterium C58C1 (pCH32 35S:p19) expressing the silencing suppressor p19 of tomato bushy stunt virus (Voinnet et al., 2003) so that the final density of Agrobacterium solution was about 1. Bacteria were incubated for 3 h at room temperature and then injected into young fully expanded leaves of 4-week-old N. benthamiana plants. Leaves were examined after 3-4 days under a Leica TCS-SL confocal microscope and laser scanning confocal imaging system. Quantification of fluorescent protein signal was done as described (Gampala et al., 2007) using the National Institutes of Health (NIH) Image software ImageJ v1.37. […]

[2] = test system: Arabidopsis thaliana plants; assay: Water-loss assays of OE lines; type: in vivo; conditions: for water loss under drought stress: greenhouse, leaves detached after 11-d without irrigation
Experimental: 2-3 weeks-old seedlings grown in MS plates were used for water-loss assays. Four seedlings per genotype with similar growth, three independent experiments, were submitted to the drying atmosphere of a flow laminar hood. Kinetic analysis of waterloss was performed and represented as the percentage of initial fresh weight loss at each scored time point. Stomatal aperture measurements were done in leaves of 5-week-old plants grown under greenhouse conditions using whole leaf imaging (Chitrakar and Melotto, 2010). Staining of whole leaves with propidium iodide was conducted and the aperture of 30-40 stomata (ratio width/length, two independent experiments) was measured using a Leica TCS-SL confocal microscope.
Plants grown under greenhouse conditions (10 individuals per experiment, three independent experiments) were grown under normal watering conditions for 15 days and then subjected to drought stress by stopping irrigation during 20 days. Next, watering was resumed and survival rate was calculated after 3 days by counting the percentage of plants that had more than four green leaves. Photographs were taken at the start of the experiment (day 0), after 16 and 19 days of drought, and 3 days after rewatering. Shoot-growth and water-loss were measured as follows. Quantification of shoot-growth was performed at 2, 5, 7 and 9 d after stopping irrigation (day 0) by measuring the maximum rosette radius of the plants. Water-loss measurements were done in two leaves from each plant that were detached 11 d after the start of the experiment, next weighted, incubated in de-mineralized water for 3 h and weighed again. The difference in weight was considered as water loss and related to the initial fresh weight (μl H2O/g FW).

RAB18 = assay: Quantitative RT-PCR of ABA-responsive gene RAB18 in OE plants; type: in vivo, Arabidopsis thaliana
Experimental: ABA treatment, RNA extraction and quantitative RT-PCR amplifications were performed as previously described (Saez et al., 2004).

PP2CA [3] = target: T1, PP2CA (Arabidopsis thaliana, UniProt O80920+P49598, A194T); assay: BiFC assay with PP2CA in N. benthamiana leaves; type: cell-based; design: expressed in transfected cells; host or cells: N. benthamiana leaf epidermal cells (Agroinfiltration); conditions: no exogenous ABA; compared to PYL4
T1 sequence (P49598 whole entry, one chain of several): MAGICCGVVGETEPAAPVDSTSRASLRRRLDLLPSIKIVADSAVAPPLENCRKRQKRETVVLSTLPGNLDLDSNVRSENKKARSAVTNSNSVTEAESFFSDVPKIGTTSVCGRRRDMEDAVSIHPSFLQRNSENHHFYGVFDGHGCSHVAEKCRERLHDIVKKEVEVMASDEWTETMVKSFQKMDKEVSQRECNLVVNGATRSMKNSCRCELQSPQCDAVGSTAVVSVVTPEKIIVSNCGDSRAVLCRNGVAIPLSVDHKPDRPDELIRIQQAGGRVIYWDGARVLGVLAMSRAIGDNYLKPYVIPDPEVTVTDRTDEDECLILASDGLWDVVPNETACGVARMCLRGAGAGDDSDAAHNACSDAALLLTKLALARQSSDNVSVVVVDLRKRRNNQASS
Experimental: as §1

PP2CA [4] = target: T1, PP2CA; assay: In vitro phosphatase activity assay with pNPP substrate, PP2CA; type: biochemical; design: made in house; host or cells: E. coli BL21 (DE3); conditions: for inhibitory effect on the activity of PP2CA with respect to PYL4: absence of ABA, 2 μM phosphatase, 4 μM receptor
Experimental: Phosphatase activity was measured using as a substrate either pNPP or phosphorylated ΔC-ABF2, ΔC-ABI5 and SLAC11-186 proteins. For the pNPP substrate, assays were performed in a 100 μl solution containing 25 mM Tris-HCl pH 7.5, 2 mM MnCl2 and 5 mM pNPP. Assays contained 2 μM phosphatase (PP2CA or HAB1), 4 μM receptor and the indicated concentrations of ABA. Phosphatase activity was recorded with a ViktorX5 reader at 405 nm every 60 seconds over 30 minutes and the activity obtained after 30 minutes is indicated in the graphics. In order to obtain phosphorylated ΔCABF2, ΔC-ABI5 and SLAC11-186 proteins, OST1 phosphorylation assays were done basically as described previously (Dupeux et al., 2011 b). ΔC-ABF2 and SLAC11-186 N-terminal fragments were prepared as described (Antoni et al., 2012; Vahisalu et al., 2010). ΔC-ABI5 recombinant protein (amino acid residues 1-200, containing the C1, C2 and C3 target sites of ABA-activated SnRK2s) was expressed in the pETM11 vector as described above. The reaction mixture containing the OST1 kinase and either ΔCABF2, ΔC-ABI5 or SLAC11-186 recombinant proteins were incubated for 50 min at room temperature in 30 μl of kinase buffer: 20 mM Tris-HCl pH 7.8, 20 mM MgCl2, 2 mM MnCl2, and 3.5 μCi of γ-32ATP (3000 Ci/mmol). Thus, OST1 was autophosphorylated and in turn it phosphorylated ΔC-ABF2, ΔC-ABI5 and SLAC11-186 proteins. Next, they were used as substrates of PP2CA that was preincubated (or not) for 10 with PYL4 or PYL4A194T (1:10 phosphatase:receptor ratio) either in the absence or presence of 30 μM ABA. The reaction was stopped by adding Laemmli buffer and the proteins were separated by SDS-PAGE using an 8% acrylamide gel and transferred to an Immobilon-P membrane (Millipore). Radioactivity was detected and quantified using a Phosphorimage system (FLA5100, Fujifilm). After scanning, the same membrane was used for Ponceau staining. The data presented are averages of at least three independent experiments.

| Molecule | localization of interaction with PP2CA (PP2CA [1]) | water loss under drought stress [2] | water-loss kinetics ([2]; 15-d-old seedlings, drying atmosphere of a laminar flow hood) | induction of RAB18 after ABA-treatment (RAB18; 10 μM ABA for 3 h) | expression of RAB18 up-regulated compared to non-transformed plants (RAB18; absence of exogenous ABA treatment) [fold] | relative fluorescence emission of interaction with PP2CA (PP2CA [3]) | inhibitory effect on the activity of PP2CA with respect to PYL4 (PP2CA [4]) | inhibitory effect on the activity of PP2CA with respect to PYL4 (PP2CA [4]; listed as PYL4^A194T) [%] | inhibition of PP2CA (PP2CA [4]; presence of 1 μM ABA) |
| --- | --- | --- | --- | --- | --- | --- | --- | --- | --- |
| PYL4: AtPYL4 wild type ABA receptor polypeptide (SEQ ID NO:3, At2g38310) [reference compound] | localized mostly to the nucleus | reduced water loss compared to non-transformed plants |  |  |  |  |  |  |  |
| B1 | relatively much more abundant in the cytosol compared to PYL4 | reduced water loss compared to non-transformed Col and PYL4 OE plants | lost less water than non-transformed or PYL4 OE lines | not higher than in non-transformed plants | 6 | higher | around 20% | 20 | higher inhibition of PP2CA than PYL4 |
